From patent publication US20230094463A1, “ANTIBODIES THAT DISRUPT THE INTERACTION OF GAL3 AND INSULIN RECEPTOR OR INTEGRINS AND METHODS OF USE THEREOF” (TrueBinding, Inc., priority 2019, published 2023)

Key:
[1] = target: T1, human Gal3 (Homo sapiens, UniProt P17931); test: Antibody binning assays (competition for binding to Gal3); conditions: binning per Examples 3 and 18
T1 construct: His; purchased AcroBio GA3-H5129
Description: To determine whether Gal3-binding antibodies with Gal3-INSR blocking activity bind to the same or overlapping regions of the Gal3 molecule, antibody binning assays were performed to assess the ability of antibodies to simultaneously bind Gal3. Amine-reactive probes were loaded onto a Gator biosensor (Probe Life, Palo Alto, Calif.), equilibrated in dH20 for 60 seconds, dipped into 100 μl EDC 0.2M/NHS 0.05M activation buffer for 30 seconds, then dipped into a solution of […] human Gal3-His in 10 mM NaOAc buffer, pH 5 until binding was saturated, and quenched in 1 M ethanolamine pH 8.5 for 300 seconds. Following Gal3-His loading, tips were dipped in 20 μg/mL saturating antibody, then successively dipped into 5 μg/mL competing antibody.
The epitope binning assay was done in a sandwich format on the high-throughput SPR-based Carterra LSA unit (CarterraBio, Salt Lake City, Utah). First, the purified antibodies were diluted to 10 μg/ml concentration in 10 mM NaOAc (pH 5.0) and then were covalently coupled via amine group to HC200M chip activated by EDC and S-NHS to immobilize antibodies to different positions of a 384-spot array. One hundred thirty-eight binning cycles were run on the array of immobilized antibodies. In each cycle, first, human Gal3 (AcroBio GA3-H5129) was injected over the entire array to bind to different antibodies (primary antibody), followed by one antibody (secondary antibody) selected among the panel of 150 anti-GAL3 antibodies tested. At the end of each cycle, the array was regenerated by 10 mM Glycine (pH 2.0) to remove bound antigen and secondary antibody from the array. The data analysis was done using the Epitope software by CarterraBio.

[2] = test system: Jurkat T cell adhesion; test: Jurkat T cell adhesion assay on Gal-3/antibody coated plates; assay type: cell-based; conditions: recombinant Gal-3 pre-incubated with antibody, 10^5 cells per well
Description: To evaluate whether anti-GAL3 antibodies that block GAL3 interaction with integrin negatively influence lymphocyte homing (an important aspect in development of inflammatory diseases), a cell-based assay utilizing lymphocyte Jurkat T cell line was employed. Briefly, recombinant Gal-3 ([…] in PBS) and antibody ([…] in PBS) were incubated for 30 minutes on ice prior to the coating mixture transfer to the 96-well plate and additional overnight incubation. The coating mixture was then removed and the plate was blocked with 0.5% BSA for 45 minutes. Jurkat T cells (10^5 cells per well) were plated in serum free RPMI. Following thirty-minute incubation, the cells were gently washed once with serum free medium and fixed with 4% PFA for 10 minutes. The adhered cells were further stained with SYTOX™ Orange Nucleic Acid staining (ThermoFisher, S11368) and analyzed by Cytation 1 Cell Imaging Multi-Mode Reader (Biotek).

[3] = target: T2, Gal3 peptides (SEQ ID NOs: 3-26) (Homo sapiens, UniProt P17931); test: Gal3 peptide library binding ELISA (epitope mapping)
T2 construct: a library of 24 amino acid peptides representing portions of Gal3; purchased LifeTein custom order
Description: (§1) To identify the epitopes to which Gal3 antibodies with and without Gal3-INSR blocking activity bound, a library of 24 amino acid peptides representing portions of Gal3, depicted in FIG. 27, was produced and the ability of each peptide to bind Gal3 antibodies was evaluated by ELISA. At least 2 μg/ml of hGal3 peptide in 50 μl of PBS or 0.1 μg/ml of full-length human Gal3 protein (GenScript) and human Galectin-3 protein (Acro Biosystems, GA3-H5129) were diluted in PBS (Corning, 21-030-CM) to concentrations of at least 2 μg/ml or 0.1 μg/ml, respectively, and added to the wells of a 96-well ELISA plate (Thermo Fisher, 44-2404-21). After incubating the plate at 4° C. overnight, the plate was washed three times with PBST (PBS with 0.05% Tween 20 [VWR, 0777]). The plate was then blocked for an hour with 2% BSA (EMD Millipore, 126609) in PBST at room temperature with gentle rocking. Thereafter, the 2% BSA in PBST was discarded and human Galectin-3 hybridoma supernatants or antibodies were diluted in 2% BSA in PBST to concentrations of at least 0.1 μg/ml and added to the wells. The plate was incubated for an hour at room temperature with gentle rocking and then washed three times with PBST. Afterwards, Goat Anti-Mouse IgG-HRP (Jackson ImmunoResearch, 115-036-1461) or Goat Anti-Rat IgG HRP (Abcam, ab205720) diluted in 2% BSA in PBST (1:4000) were added to the wells. The plate was incubated for 30 minutes to 1 hour at room temperature with gentle rocking and then washed three times with PBST. TMB substrate (Thermo Scientific, 34029) was then added to each well. The reaction was stopped with 1M HCl (JT Baker, 5620-02) and read using a plate reader (Molecular Devices) at absorbance of 450 nm.
(§2) Human Gal3 peptides (LifeTein, custom order) and human Gal3 proteins (R&D Systems, 8259-GA; TrueBinding, QCB200349) were diluted in PBS (Corning, 21-030-CM) to concentrations of at least 100 μg/mL (peptides) or 1 μg/mL (proteins), and added to the wells of several 96-well ELISA plates (Thermo Fisher, 44-2404-21). After incubating the plates at 4° C. overnight, the plates were washed three times with PBST (PBS with 0.05% Tween 20 [VWR, 0777]). The plates were then blocked for an hour with 2% BSA (EMD Millipore, 126609) in PBST at room temperature with gentle rocking. Thereafter, the 2% BSA in PBST was discarded and Gal3-binding antibodies (reformatted hIgG4 [S228P]) were diluted in 2% BSA in PBST to concentrations of 5 μg/mL and added to the wells. The plates were incubated for an hour at room temperature with gentle rocking and then washed three times with PBST. Afterwards, Peroxidase AffiniPure F(ab′)2 Fragment Goat Anti-Human IgG (H+L) polyclonal antibody (Jackson ImmunoResearch, 109-036-003), was diluted in 2% BSA in PBST (1:4000) and added to the wells. The plates were incubated for 1 hour at room temperature with gentle rocking and then washed three times with PBST. TMB substrate (Thermo Scientific, 34029) was then added to each well. The reaction was stopped with 1M HCl (JT Baker, 5620-02) and read using a plate reader (Molecular Devices) at absorbance of 450 nm.

[4] = test system: Gal3 peptides (SEQ ID NOs: 3-26); test: as above; set-up: species or system human; conditions: Peptide 8 (SEQ ID NO: 10)
Description: as §1, §2

[5] = test system: NOD/ShiLtJ mice; conditions: 10 mg/kg twice a week
Description: To assess the therapeutic potential of anti-GAL3 antibody in Type I diabetes, a mouse model of diabetes type I was used. Briefly, seven-weeks-old female NOD/ShiLtJ mice (Jackson lab (001976)) and control group animals NOR/LtJ (Jackson Lab (002050)) were housed in standard disposable cages with filter tops at room temperature with a 6:00-18:00 day-night cycle. Mice were allowed to rest for a week before initiating glucose monitoring. The antibody treatment was initiated when glucose levels reach 250-400 (mg/dL) for two consecutive days. To establish glucose levels, the blood samples were collected from tail vein of the experimental animals following housing in clean cages with water and no food for 4-6 hours. The collected samples were analyzed by HemoCue Glucose 201 Analyzer and cuvettes (Mercedes Scientific 110706). […] At the end stage, the plasma samples were collected from symptomatic animals. C-peptide levels were determined by Alpco Mouse C-peptide ELISA kit (Alpco, 80-CPTMS-E01).

T1 sequence (P17931 whole entry): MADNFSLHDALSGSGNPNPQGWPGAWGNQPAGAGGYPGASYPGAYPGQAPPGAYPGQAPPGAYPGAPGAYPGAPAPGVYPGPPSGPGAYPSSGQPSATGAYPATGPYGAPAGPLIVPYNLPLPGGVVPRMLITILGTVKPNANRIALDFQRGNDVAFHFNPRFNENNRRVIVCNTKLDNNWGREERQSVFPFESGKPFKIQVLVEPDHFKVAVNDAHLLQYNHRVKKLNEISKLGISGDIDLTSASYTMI

Molecule	epitope bin (competitive binding to Gal3) [1]	inhibition of Jurkat T cell adhesion [2]	binding to Gal3 Peptide 1 ([3]; Peptide 1 (SEQ ID NO: 3), amino acids 1-20 of Gal3)	binding to Gal3 Peptide 6 ([3]; Peptide 6 (SEQ ID NO: 8), amino acids 51-70 of Gal3)	binding to Gal3 Peptide 7 ([3]; Peptide 7 (SEQ ID NO: 9), amino acids 61-80 of Gal3)	binding to Gal3 Peptide 8 [4]	levels of blood glucose [5]	survival [5]	C-peptide levels ([5]; plasma ELISA)
23H9.2E4: anti-Gal3 monoclonal antibody (antibody, V domains shown) VH: QIQLVQSGPELKKPGETVKISCKASGYTFTTYAMSWVKQAPGKGLKWMGWINTYSGVPTYADDLKGRFAFSLETSASTAYLQINNLKNEDTATYFCARGPYAMDYWGQGTSVTVSS VL: DIQMTQTTSSLSASLGDRVTISCSASQGINNYLNWYQQKPDGTVKLLIYYASSLHSGVPSRFSGSGSGTDYSLTISNLEPEDIATYYCQQYSQVPYTFGSGTKLEIK	bin 3	did not inhibit	bind and bound	bind and bound	bind and bound	bind	–	–	–
mTB001: anti-GAL3 antibody used in mouse models (antibody) heavy: QIQLVQSGPELKKPGETVKISCKASGYTFTNYGMNWVKQAPGKGLKWMGWINTNTGEPTYVEEFKGRFAFSLETSASTAYLQINNLKNEDTATYFCAPYDNFFAYWGQGTLVTVSAAKTTPPSVYPLAPVCGDTTGSSVTLGCLVKGYFPEPVTLTWNSGSLSSGVHTFPAVLQSDLYTLSSSVTVTSSTWPSQSITCNVAHPASSTKVDKKIEPRGPTIKPCPPCKCPAPNAAGGPSVFIFPPKIKDVLMISLSPIVTCVVVDVSEDDPDVQISWFVNNVEVHTAQTQTHREDYNSTLRVVSALPIQHQDWMSGKEFKCKVNNKDLGAPIERTISKPKGSVRAPQVYVLPPPEEEMTKKQVTLTCMVTDFMPEDIYVEWTNNGKTELNYKNTEPVLDSDGSYFMYSKLRVEKKNWVERNSYSCSVVHEGLHNHHTTKSFSRTPGK light: DIVITQDELSNPVTSGESVSISCRSSKSLLYKDGKTYLNWFLQRPGQSPQLLIYLMSTHASGVSDRFSGSGSGTDFTLEISRVKAEDVGVYYCQQLVDYPLTFGAGTKLELKRADVAPTVSIFPPSSEQLTSGGASVVCFLNNFYPKDINVKWKIDGSERQNGVLNSWTDQDSKDSTYSMSSTLTLTKDEYERHNSYTCEATHKTSTSPIVKSFNRNEC	–	–	–	–	–	–	stabilizing the levels of blood glucose	prolonged survival	restoring C-peptide levels
